The values that follow come from publication PMC6887587.

Test [1] has as its target FHR4/VHH(T) trifunctional heteromultimer, Clone 2E3 (first single-cell sorting) (human) (UniProt P04003). The test can be described thus: SPR; Biacore 3000, CM5 chip; 10 000 RU of purified multimer immobilised by amine coupling; C3b 2.5, 5, 10 and 20 µg/mL injected in HBS-EP (10 mM Hepes pH 7.4, 150 mM NaCl, 3 mM EDTA, 0.05% P20) with 20 mM MgCl2, 5 min at 30 µL/min, 5 min dissociation; 1:1 Langmuir fit. On the technique in general: Surface plasmon resonance follows binding to a sensor surface in real time, without labels.

The target in test [2] is FHR4/VHH(T) trifunctional heteromultimer, Clone IA3 (third single-cell sorting) (human). The description is as above.

Sequence of UniProt P04003 (P04003 whole entry, looked up, one chain of several): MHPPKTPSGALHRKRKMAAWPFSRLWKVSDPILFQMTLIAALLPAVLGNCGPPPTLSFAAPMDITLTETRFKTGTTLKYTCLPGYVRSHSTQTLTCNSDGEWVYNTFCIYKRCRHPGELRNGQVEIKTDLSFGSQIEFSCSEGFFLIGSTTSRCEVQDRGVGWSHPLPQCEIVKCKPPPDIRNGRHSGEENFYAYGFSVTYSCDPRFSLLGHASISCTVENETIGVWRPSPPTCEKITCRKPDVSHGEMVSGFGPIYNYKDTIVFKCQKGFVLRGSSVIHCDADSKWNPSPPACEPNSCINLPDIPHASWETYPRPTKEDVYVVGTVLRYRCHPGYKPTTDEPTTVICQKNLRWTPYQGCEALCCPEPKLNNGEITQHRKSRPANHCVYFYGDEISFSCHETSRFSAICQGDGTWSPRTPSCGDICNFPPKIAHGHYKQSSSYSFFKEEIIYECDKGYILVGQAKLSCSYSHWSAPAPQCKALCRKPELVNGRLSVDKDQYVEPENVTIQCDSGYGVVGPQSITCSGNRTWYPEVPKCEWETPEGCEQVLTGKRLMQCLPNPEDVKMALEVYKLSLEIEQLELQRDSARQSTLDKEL

In test [1], “C3b (from UniProt P01024 749-1663; P01024 749-1663) (natural protein)” displayed a Ka of 3.65e+06 M⁻¹, a Kd of 274 nM, a final C3b binding (RU) of 58 RU and a maximum C3b binding at 20 µg/mL C3b (RU) of 100 RU. In test [2], this substance yielded a Ka of 4.48e+06 M⁻¹, a dissociation constant (Kd) of 223 nM, a final C3b binding (RU) of 78.6 RU and a maximum C3b binding at 20 µg/mL C3b (RU) of 136 RU.

As usually defined, the Kd is a measure of binding affinity in units of concentration. Higher therefore signals lower affinity.
